± gives the uncertainty stated by the source.

The nature of this data set: amyloid nucleation score (Sup35N fusion, yeast selection) (log enrichment); library NNK2; higher = more nucleation; inactive = no reads after selection. A digest of the protocol:
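Peptides of 20 random codons fused to Sup35N were expressed in psi-negative yeast, induced 24 hours with 100 μM copper sulfate, then grown 7 days at 30°C on medium lacking adenine and uracil. Input and output plasmid inserts were Illumina-sequenced. Nucleation score is the DiMSum log enrichment of output over input reads, centred on the mode score of non-aggregating sequences, excluding sequences with under 100 input reads. Random libraries had three technical output replicates.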
As to TSYIVDTSSLFITRASTG, the amyloid nucleation score was found to be 0.336 ± 0.44.

In turn, MKYLIVCDFCGLYSPCGFCF came in with an amyloid nucleation score of 7.808 ± 0.037.

With WIYIIVSPFMRWLESSLLSA, the amyloid nucleation score result was “inactive”.

Take DLEYF: the amyloid nucleation score was -1.56 ± 0.54.

On to YNISDLSMSYMAIRAYDSGS, for which the amyloid nucleation score is -1.38 ± 0.62.

Turning to PVNPQEFLSALSSRYEVKSW, the amyloid nucleation score was -0.095 ± 1.1.

Turning to PATLAKIYSVGVGNYHRFVR, the amyloid nucleation score result was “inactive”.

In the case of VHQFADFNKIMNGLDDLLLK, the amyloid nucleation score was 2.65 ± 0.081.

Regarding DRYHDTMAMKARVWSDRCKS, the amyloid nucleation score was found to be 1.94 ± 0.34.

SLVIYV had an amyloid nucleation score of -1.42 ± 0.62.

Substance SYILGILFVFYVCETKYLYL registered an amyloid nucleation score of 0.328 ± 0.25.

SIWYLGGC: the amyloid nucleation score was -0.02 ± 0.42.

RLSLGLYINALRC registered an amyloid nucleation score of 1.01 ± 0.51.

SPFIRHLNGSICRDNYFYVG returned an amyloid nucleation score of 3.03 ± 0.063.

Substance GLLVLLLETCWKLVSFDLRK returned an amyloid nucleation score of 0.561 ± 0.39.

In turn, PTRLTVKVMCLKPEPLVWKL yielded an amyloid nucleation score of 6.476 ± 0.042.

In the case of IAVERS, the amyloid nucleation score is -0.464 ± 1.1.

Regarding RCAMRVSARMSRSTGISRLR, the amyloid nucleation score was 1.64 ± 0.15.

In the case of TLPVPPGCRFVEITV, the amyloid nucleation score came out at 0.293 ± 0.53.

In the case of TKDERFV, the amyloid nucleation score is 0.218 ± 0.29.

RSICVYTIRYLFSH showed an amyloid nucleation score of -0.513 ± 0.3.

In the case of SMTTH, the amyloid nucleation score was -0.777 ± 0.36.

Turning to SCFSIFMLIPSSATAIFSQI, the amyloid nucleation score is -1.27 ± 1.

For the substance DTKTIRFLYKRYRLSWQVSE, the amyloid nucleation score was determined as 4.587 ± 0.04.

In turn, GDHVVFNWRAHSSSRIVSSY had an amyloid nucleation score of 1.17 ± 0.68.

VNRIASKWVYLLMNEFYSI came in with an amyloid nucleation score of -1.21 ± 0.61.

For the substance VEFSLSCHNMIFYVLD, the amyloid nucleation score worked out at 6.762 ± 0.028.

In the case of QLFMNPDWNKRHYNELYSSG, the amyloid nucleation score result is “inactive”.

Substance VKPVFWKLGWRDYLYSMRQF showed an amyloid nucleation score of -1.11 ± 0.3.

Take LYPWRMTCYK: the amyloid nucleation score is -1.34 ± 0.76.

FYCRVFTLSGFVRIWGDC displayed an amyloid nucleation score of -0.562 ± 1.1.

Substance FMMELCLALYLLSYQ gave an amyloid nucleation score of 0.061 ± 0.8.

Take NCYSRALYSPCSPFLLTN: the amyloid nucleation score was -1.73 ± 0.41.

The substance EGLRVEMCYGKNVSFMIGSY had an amyloid nucleation score of 5.727 ± 0.049.

For SGRTGIGWYLFCRPYPIVYA, the amyloid nucleation score amounted to 0.277 ± 0.39.

Regarding WLYLFKGWSNLDSESFTMTS, the amyloid nucleation score is -0.943 ± 0.78.

The substance VTYLMCLWAGVARG came in with an amyloid nucleation score of -0.324 ± 1.1.

On to QMMLLTV, for which the amyloid nucleation score is -0.214 ± 1.1.

The substance YGFCAFTHSC had an amyloid nucleation score of -0.554 ± 1.

TSVASGRNGNSPVHNALAWG yielded an amyloid nucleation score of 0.2 ± 0.35.

RGVDYVLSCL yielded an amyloid nucleation score of -1.21 ± 0.61.

For VILGVGKTTNFYSSFFIRVW, the amyloid nucleation score result was “inactive”.

For MSSQKWADKVPWEFVCGCFD, the amyloid nucleation score turned out to be 0.01 ± 0.65.

In turn, TTICVFNVGESHMRLSGSVG gave an amyloid nucleation score of -0.053 ± 0.28.

For PSVDCSEIKPIWNLVKYFLI, the amyloid nucleation score was -0.571 ± 0.26.

Consider RHDSCMCFMTDQL, for which the amyloid nucleation score is -0.864 ± 0.44.

In the case of YASYICIQHYCFFLAYYNML, the amyloid nucleation score result is “inactive”.

As for PSMIYFYRGSSLFASWGFLI, the amyloid nucleation score entry is “inactive”.

MVFAPIVYEIKRDIKMLFGA displayed an amyloid nucleation score of 5.947 ± 0.029.

Regarding YISVKMRSGRTSTLSDCVKA, the amyloid nucleation score was determined as 3.83 ± 0.076.

In turn, NEFRDIYGFSVSKLPTGGIC had an amyloid nucleation score of -1.17 ± 0.41.

LRSGGLFRDIMCRRDYVRCF gave an amyloid nucleation score of 1.23 ± 0.32.

For the substance SFCVALFSWSVYVTIRVHYR, the amyloid nucleation score is -0.545 ± 0.79.

For the substance RLLRQGDFGVTENRFLFRDI, the amyloid nucleation score was -0.502 ± 0.79.

As for HCLFSGYYLKLN, the amyloid nucleation score entry was “inactive”.

In turn, LGWRVGWYASDAFYKPEWFD came in with an amyloid nucleation score of -0.53 ± 0.41.

For the substance SGLEQRGMFRRKNLPIKWCL, the amyloid nucleation score amounted to 3.89 ± 0.041.

For the substance NLSYDHPACCKWNRCYVKHR, the amyloid nucleation score amounted to 1.81 ± 0.14.

The substance GGYSLWF yielded an amyloid nucleation score of 0.292 ± 0.23.

For the substance KASTRQ, the amyloid nucleation score worked out at 1.51 ± 0.34.

As for MRRSLFMCILVYDSWLYFSV, the amyloid nucleation score amounted to 3.15 ± 0.17.

For the substance FFFKSSLLR, the amyloid nucleation score is 0.241 ± 0.8.

For GDYHSYGVVRSYFCATPSSG, the amyloid nucleation score was 0.64 ± 0.44.

With FGFCGFMVHVGLVRDFLFC, the amyloid nucleation score was found to be 0.257 ± 0.56.

Substance VINTEVCIEGGRQVRPAPRL yielded an amyloid nucleation score of 1 ± 0.41.

For YYGLVQRLFSCVCYYVLTF, the amyloid nucleation score result is “inactive”.

NVDWCCQICSCFTRIFELLM yielded an amyloid nucleation score of 2.21 ± 0.23.

Consider LILRCLC, for which the amyloid nucleation score was found to be 0.235 ± 0.8.

As to THLLVVWFDNRYF, the amyloid nucleation score was 0.978 ± 0.74.

VIMVTSPQFKKPKLYMDKRD: the amyloid nucleation score was -1.03 ± 0.54.

The substance GFLFMVMRSQLRCVYINKY came in with an amyloid nucleation score of 1.61 ± 0.15.

On to WFGYMALPR, for which the amyloid nucleation score worked out at 4.63 ± 0.064.

With CKEDIISSEWYLSVGFA, the amyloid nucleation score entry was “inactive”.

Take SVGPLLYATMSMAGDSVAGA: the amyloid nucleation score was found to be 0.004 ± 0.34.

For DSVCYNFNFNTF, the amyloid nucleation score worked out at 5.711 ± 0.027.

On to GCSLVKAYCSVL, for which the amyloid nucleation score was 0.325 ± 0.6.

Substance RLIGLVSRVEHVYIAVKRWE came in with an amyloid nucleation score of 0.543 ± 0.34.

Turning to GHNATNVGHIMFFITTWCCY, the amyloid nucleation score amounted to 8.955 ± 0.047.

HRMAPMGVISGNVLLPLSVW: the amyloid nucleation score result is “inactive”.

As for PMSSMMRGSDPKV, the amyloid nucleation score came out at 0.119 ± 0.76.

Consider WMCRSTAMIHSRSDCV, for which the amyloid nucleation score is 6.328 ± 0.052.

In the case of SAGHSKGLQDVAPPRIFMVS, the amyloid nucleation score entry is “inactive”.

For the substance LTRRVGIFFHFG, the amyloid nucleation score is 4.74 ± 0.05.

IVGHRVLACVRPRRVVTRYG yielded an amyloid nucleation score of 0.118 ± 0.63.

The substance NFLGGLNRFLNCSSM yielded an amyloid nucleation score of -0.683 ± 1.1.

Consider DSGFFWCV, for which the amyloid nucleation score entry was “inactive”.

ASVKSILVYGGCTKWFFPHF: the amyloid nucleation score amounted to 4.11 ± 0.062.

Consider IDYHD, for which the amyloid nucleation score was -1.45 ± 0.78.

For TYGTTELVLHRTEINMMRNQ, the amyloid nucleation score stood at 3.25 ± 0.12.

YILAFVILAMEAWHRV yielded an amyloid nucleation score of 3.68 ± 0.086.

In the case of FRSNYVKAFRYLYVGLVVNL, the amyloid nucleation score is -0.505 ± 1.1.

For SQKLSIQYQLRYFILLVKPR, the amyloid nucleation score was -0.704 ± 0.5.

As for KAGESWTEGDSAVWGFLRLE, the amyloid nucleation score came out at 0.942 ± 0.81.

For FALLPCDKVCLGVREWFNFG, the amyloid nucleation score result is “inactive”.

In the case of GHSCLMVNNACSLDGHEESV, the amyloid nucleation score was found to be 1.16 ± 0.39.

The substance GIGAQINHSVPLRGGKPRAL registered an amyloid nucleation score of -0.406 ± 1.1.

Take DFNIIECSPGRGVHHDDWEP: the amyloid nucleation score entry was “inactive”.

EFTAFYGQEFKW: the amyloid nucleation score is 0.182 ± 1.1.

KTLFINLHSCCANVGYAVRW: the amyloid nucleation score came to 4.87 ± 0.058.

In turn, ICFTCQYFNKYPGRS gave an amyloid nucleation score of 4.31 ± 0.09.

Consider FTWVYMVGFKWWVSVCLLDS, for which the amyloid nucleation score is -0.551 ± 0.28.

In turn, MDFSSLWGLHFVLCCVSWGR gave an amyloid nucleation score of 0.256 ± 1.

Values taken from the supplement of paper PMC12042874.
